Ten compounds from patent publication US6534035B1, “Methods of inhibiting clot formation” (President and Fellows of Harvard College, priority 1998, dated 2003) can be followed below.

Several values for one entry are separate records, joined by “and”; a condition that tells them apart may be missing. Equal values may be shown once.

Data set [1] has as its target T1, FXIIIa (Homo sapiens, UniProt P00488).
T1 construct: purchased American Diagnostica
T1 sequence (P00488 39-732 limits assumed): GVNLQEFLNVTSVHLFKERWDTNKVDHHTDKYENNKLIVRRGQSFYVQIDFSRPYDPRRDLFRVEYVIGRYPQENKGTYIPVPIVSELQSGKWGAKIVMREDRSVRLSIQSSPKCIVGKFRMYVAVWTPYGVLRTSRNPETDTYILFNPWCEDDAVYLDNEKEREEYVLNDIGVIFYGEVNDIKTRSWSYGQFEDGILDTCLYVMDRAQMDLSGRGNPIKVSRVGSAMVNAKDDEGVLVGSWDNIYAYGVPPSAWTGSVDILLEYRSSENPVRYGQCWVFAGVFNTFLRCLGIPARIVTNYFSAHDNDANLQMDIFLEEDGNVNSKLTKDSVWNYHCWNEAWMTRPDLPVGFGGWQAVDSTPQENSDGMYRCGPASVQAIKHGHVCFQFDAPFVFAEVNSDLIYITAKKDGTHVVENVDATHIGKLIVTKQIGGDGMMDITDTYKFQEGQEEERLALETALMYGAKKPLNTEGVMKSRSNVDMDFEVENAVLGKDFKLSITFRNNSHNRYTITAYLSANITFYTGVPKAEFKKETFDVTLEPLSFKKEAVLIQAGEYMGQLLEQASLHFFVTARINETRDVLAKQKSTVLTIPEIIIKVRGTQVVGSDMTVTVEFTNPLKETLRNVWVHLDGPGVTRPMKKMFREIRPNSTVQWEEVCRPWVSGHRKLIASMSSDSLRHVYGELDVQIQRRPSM
Description: FXIIIa catalytic half-life: crosslinking of substrates into fibrin clots of various ages. The data set is classed as biochemical. As for the experimental part: (§1) Experiments were performed to determine how long FXIIIa in clots could crosslink various substrates such as human ^125I -α2AP, α2AP13-24 (SEQ ID NO:2), and 5-(biotinamido)pentylamine, into fibrin. In a typical experiment, clots were prepared (50 μl final volume) in duplicate by combining fibrinogen (2 mg/ml final), CaCl2 (2 mM final), buffer (Tris-buffered saline pH 7.4) and thrombin (1 U/ml) and incubating at 37° C. Synchronous with the addition of thrombin, or up to 240 minutes afterwards, the FXIIIa substrates 5-(biotinamido)pentylamine (0.5 mM final), ^125I -α2AP (70 μg/ml final), and α2AP13-24 (0 to 1 mM final) were mixed and added to the clot. In one set of control samples, FXIIIa was inhibited with iodoacetamide (10 mg/ml) prior to the addition of substrate; to another set, no substrate was added. After 2 hours of incubation at 37° C., iodoacetamide (10 mg/ml) was added to stop the reaction. The tubes were then centrifuged at 14,000 rpm for 2 minutes, washed and compressed in 1 ml saline to remove unbound proteins, and centrifuged again at 14,000 rpm for 2 minutes. After removal of the supernatant, the clots were solubilized in 100 μL of 9M urea, pH 9.0 at 37° C. for 60 minutes. Then 100 μl of SDS reducing sample buffer was added and the clots were placed at 85° C. for 30 minutes until fully solubilized. The samples were examined by SDS-PAGE. Crosslinked ^125I-α2AP was detected and quantitated by phosphorimaging. Samples containing crosslinked α2AP13-24 and pentylamine substrates were electroblotted to PVDF membranes and detected by ^125I-streptavidin followed by phosphorimaging or by streptavidin-peroxidase followed by the developing agents 5-bromo-4-chloro-3-indolyl phosphate-nitro blue tetrazolium using methods known in the art. In experiments examining the effect of specific amino acid residues on the crosslinking of the α2AP13-24 peptide (SEQ ID NO:2) to fibrin, crosslinking was detected by immunoblotting with an anti-peptide antibody directed against this epitope followed by ^125I-protein A and phosphorimaging. […]

In data set [2] the target is T1, FXIIIa. As to the kind of experiment: Crosslinking of α2AP1-24 and variant peptides to fibrin clots. The data set is classed as biochemical. The conditions noted are these: 0.5 mM of each peptide clotted with human fibrinogen; compared to wild type α2AP1-24. As for the experimental part: A 0.5 mM concentration of each peptide was clotted with human fibrinogen. After electrophoresis of the solubilized, reduced clots on 7.5% SDS-PAGE gels and transfer to PVDF membranes, the extent of crosslinking of each peptide was determined by incubating the membranes with a polyclonal antibody directed against the amino-terminus of α2AP, followed by incubation in ^125I-protein A, and exposure in a phosphorimager. Each bar reflects phosphorimage quantification of the fibrin crosslinking α2AP1-24 and the variant peptides. The mean±SD pixel volume of the quantified blots are shown.
Experiments were performed to determine how long FXIIIa in clots could crosslink various substrates such as human ^125I -α2AP, α2AP13-24 (SEQ ID NO:2), and 5-(biotinamido)pentylamine, into fibrin. In a typical experiment, clots were prepared (50 μl final volume) in duplicate by combining fibrinogen (2 mg/ml final), CaCl2 (2 mM final), buffer (Tris-buffered saline pH 7.4) and thrombin (1 U/ml) and incubating at 37° C. Synchronous with the addition of thrombin, or up to 240 minutes afterwards, the FXIIIa substrates 5-(biotinamido)pentylamine (0.5 mM final), ^125I -α2AP (70 μg/ml final), and α2AP13-24 (0 to 1 mM final) were mixed and added to the clot. In one set of control samples, FXIIIa was inhibited with iodoacetamide (10 mg/ml) prior to the addition of substrate; to another set, no substrate was added. After 2 hours of incubation at 37° C., iodoacetamide (10 mg/ml) was added to stop the reaction. The tubes were then centrifuged at 14,000 rpm for 2 minutes, washed and compressed in 1 ml saline to remove unbound proteins, and centrifuged again at 14,000 rpm for 2 minutes. After removal of the supernatant, the clots were solubilized in 100 μL of 9M urea, pH 9.0 at 37° C. for 60 minutes. Then 100 μl of SDS reducing sample buffer was added and the clots were placed at 85° C. for 30 minutes until fully solubilized. The samples were examined by SDS-PAGE. Crosslinked ^125I-α2AP was detected and quantitated by phosphorimaging. Samples containing crosslinked α2AP13-24 and pentylamine substrates were electroblotted to PVDF membranes and detected by ^125I-streptavidin followed by phosphorimaging or by streptavidin-peroxidase followed by the developing agents 5-bromo-4-chloro-3-indolyl phosphate-nitro blue tetrazolium using methods known in the art. In experiments examining the effect of specific amino acid residues on the crosslinking of the α2AP13-24 peptide (SEQ ID NO:2) to fibrin, crosslinking was detected by immunoblotting with an anti-peptide antibody directed against this epitope followed by ^125I-protein A and phosphorimaging. In some experiments, clots were formed by mixing 25 μl pooled human fresh frozen plasma with 25 μl 30 mM CaCl2 instead of using human fibrinogen.
Although FXIIIa can crosslink a number of lysine analogs to glutamine sites in macromolecules such as fibrin, its specificity for crosslinking glutamine-containing substrates (acyl donors) such as α2AP to fibrin has not been defined. To examine specificity, a wild-type α2AP fragment spanning residues 1-24 (MEPLGWQLTSGPNQEQVSPLTLLK; SEQ ID NO:16) and a panel of α2AP variant peptides (corresponding to residues 1-24 with the exception that one residue is altered from the wild type sequence; SEQ ID NO:11, 12, 13, 14, 15) was created with mutations of residues that represented other potential crosslinking sites or residues that are conserved among different α2APS from different species. […]

The target of data set [3] is T1, FXIIIa. Description: Variant peptides as inhibitors of the crosslinking of α2AP13-24 into fibrin. Type of data set: biochemical. The conditions noted are these: peptides used as inhibitors. Here is the method: as §1, with “In one set of control samples, FXIIIa was inhibited with iodoacetamide (10 mg/ml) prior to the addition of substrate; to another set, no substrate was added. After 2 hours of incubation at 37° C., iodoacetamide (10 mg/ml) was added to stop the reaction. The tubes were then centrifuged at 14,000 rpm for 2 minutes, washed and compressed in 1 ml saline to remove unbound proteins, and centrifuged again at 14,000 rpm for 2 minutes. After removal of the supernatant, the clots were solubilized in 100 μL of 9M urea, pH 9.0 at 37° C. for 60 minutes. Then 100 μl of SDS reducing sample buffer was added and the clots were placed at 85° C. for 30 minutes until fully solubilized. The samples were examined by SDS-PAGE.” left out

Data set [4] can be described thus: Activated partial thromboplastin time in heparinized ferrets. The data set is classed as in vivo, ferret. The conditions noted are these: heparin bolus 100 units/kg, throughout the experiment. As for the experimental part:
All animals received weight-adjusted heparin at 100 units/kg (bolus), a dose sufficient to keep the activated partial thromboplastin time (aPTT) above 150 seconds throughout the procedure. TPA was given as a continuous infusion over 2 hours (1 mg/kg in 5 ml of normal saline). […] The thorax was dissected and all intrathoracic structures were removed for gamma counting to detect residual thrombi. The percentage of clot lysis was determined for each ferret by dividing the total residual radioactivity in the thorax by that in the initial thrombi. A total of 28 animals was studied; three were excluded because of anesthetic-related death, improper TPA infusion, and failed embolism.

Data set [5] concerns the target T1, FXIIIa. Description: Dose-dependent crosslinking of α2AP13-24 into fibrin clots. The data set is classed as biochemical. The note with it: purified human fibrinogen. As for the experimental part: as §1, with “In one set of control samples, FXIIIa was inhibited with iodoacetamide (10 mg/ml) prior to the addition of substrate; to another set, no substrate was added. After 2 hours of incubation at 37° C., iodoacetamide (10 mg/ml) was added to stop the reaction. The tubes were then centrifuged at 14,000 rpm for 2 minutes, washed and compressed in 1 ml saline to remove unbound proteins, and centrifuged again at 14,000 rpm for 2 minutes. After removal of the supernatant, the clots were solubilized in 100 μL of 9M urea, pH 9.0 at 37° C. for 60 minutes. Then 100 μl of SDS reducing sample buffer was added and the clots were placed at 85° C. for 30 minutes until fully solubilized. The samples were examined by SDS-PAGE.” left out

For a further data set, the system named is fibrinogen. As to the kind of experiment: Residual fibrinogen level by sodium sulfite method. Type of data set: in vivo, ferret. The note with it: ferrets, before and after treatment. As for the experimental part:
FIG. 2 is a bar graph showing the effects of factor XIIIa activity and TPA on residual fibrinogen levels. Fibrinogen levels were measured in 25 ferrets by sodium sulfite precipitation and expressed as a percentage of the fibrinogen level prior to the experiments (“before study” level was defined as 100%). The percent residual fibrinogen level (mean±SD) is shown for each group of 5 ferrets at the end of the experiment. The following conditions were evaluated: Control, normal factor XIIIa activity, no TPA; F13-I, factor XIIIa inhibited, no TPA; TPA, TPA with normal factor XIIIa activity; TPA+F13-I, TPA with inhibited factor XIIIa activity; TPA+α2AP-I, TPA with inhibited α2 antiplasmin-fibrin crosslinking.
Blood samples were collected on K3EDTA (0.15% solution, final concentration) with aprotinin (50 kallikrein units/ml). Platelet-poor plasma was obtained by centrifugation of whole blood and assayed for fibrinogen by a standard sodium sulfite method such as that described by Rampling et al. 1976, Clin Chim Acta. 67:43-52.

The subject of a further data set is pulmonary emboli. As to the kind of experiment: Lysis of radiolabeled pulmonary emboli in ferrets. The data set is classed as in vivo, ferret. The source says:
Pulmonary embolisms were induced in ferrets using standard methods, e.g., that described in Butte et al., 1997, Circulation. 95:1886-1891). Male ferrets (weighing approximately 1 kg) were anesthetized with ketamine and acepromazine. After full anesthesia had been obtained, the jugular vein and carotid artery were exposed by an anterior midline incision and cannulated with 20G catheters. Pooled, citrated human plasma was mixed with ^125I-fibrinogen to achieve a specific activity of approximately 1,000,000 cpm/ml. Individual clots were formed by mixing ^125I-fibrinogen-labeled plasma (45 μl) with 2.5 μl of bovine thrombin (100 units/ml) and 2.5 μl of calcium chloride (0.4 M). […] The radioactive content of the clots was measured in a gamma counter immediately before injection. […] Successful embolization was evinced by the accumulation of radioactivity in the thorax.
All animals received weight-adjusted heparin at 100 units/kg (bolus), a dose sufficient to keep the activated partial thromboplastin time (aPTT) above 150 seconds throughout the procedure. […] The percentage of clot lysis was determined for each ferret by dividing the total residual radioactivity in the thorax by that in the initial thrombi. […]

For the compound `O[C@H](CS)[C@H](O)CS` (racemic) [DTT, dithiothreitol], at FXIIIa [1] (added to reaction mixtures, 2 or 4 hour old clots), the “effect of reducing agent on crosslinking in old clots” value is given as “restored the crosslinking of pentylamine or α2AP13-24 to fibrin clots”.

Consider `NCCCCCNC(=O)CCCC[C@@H]1SC[C@@H]2NC(=O)N[C@@H]21` [pentylamine-biotin, 5-(biotinamido)pentylamine], for which, on FXIIIa [1] (substrate added to 2 or 4 hour old clots), the “residual FXIIIa crosslinking of substrate” value was “little residual FXIIIa crosslinking”.

On to “MEPLGWQLTS GPNQAQVSPL TLLK (MEPLGWQLTSGPNQAQVSPLTLLK; listed as Homo sapiens) [E15A, α2AP1-24 variant peptide]”, for which the “crosslinking of peptide to fibrin” value in the data set with FXIIIa [2] is reported as “crosslinked into fibrin at rates comparable to that of the wild type”.

For the compound “MEPLGWQLTSGPNQEAVSPLTLLK (listed as Homo sapiens) [Q16A, α2AP1-24 variant peptide]”, the “crosslinking of peptide to fibrin” value with FXIIIa [2] is reported as “crosslinked into fibrin at rates comparable to that of the wild type”.

Consider “MEPLGWQLTSGPNQEQVSPLTNLK (listed as Homo sapiens) [L22N, α2AP1-24 variant peptide]”, for which the “crosslinking of peptide to fibrin” value in the data set with FXIIIa [2] was “crosslinked into fibrin at rates comparable to that of the wild type”.

As to “Q14A: α2AP1-24 variant peptide containing mutation Q14A (MEPLGWQLTSGPNAEQVSPLTLLK; listed as Homo sapiens)”, the “crosslinking of peptide to fibrin” value with FXIIIa [2] is “not efficiently crosslinked to fibrin”. The “competition for crosslinking of α2AP13-24 into fibrin” value with FXIIIa [3] was “all peptides but Q14A and V17N competed for crosslinking”.

“V17N: α2AP1-24 variant peptide containing mutation V17N (MEPLGWQLTSGPNQEQNSPLTLLK; listed as Homo sapiens)”: in the data set with FXIIIa [2], the “crosslinking of peptide to fibrin” value is listed as “not efficiently crosslinked to fibrin”. Besides, the “competition for crosslinking of α2AP13-24 into fibrin” value with FXIIIa [3] was “all peptides but Q14A and V17N competed for crosslinking”.

As to heparin, the “activated partial thromboplastin time (aPTT)” value in data set [4] was “above 150 seconds”.

Take hirudin [reference compound]: the “effect on α2AP13-24 peptide-fibrin crosslinking” value on FXIIIa [5] was “blocked α2AP13-24 peptide-fibrin crosslinking”.

In the case of tissue plasminogen activator [TPA], the “residual fibrinogen level at end of study, percentage of initial value” in the data set on fibrinogen is reported as “nonspecific degradation of fibrinogen did not occur”. Also, the “lysis of pulmonary emboli compared with other group” value in the data set with pulmonary emboli (FIGS. 1A and 1B group comparisons) is on record as “significantly increased lysis”. For the same compound, the “lysis of pulmonary emboli (mean±SD)” value in the data set on pulmonary emboli (TPA 1 mg/kg infused over 2 hours, heparin 100 units/kg, 4 hours after embolization) was 32.3±7.7% and 32.2±7.7%.
